Data on two substances can be found in paper PMC10465243, “Identification of sucrose synthase from Micractinium conductrix to favor biocatalytic glycosylation” (Frontiers in Microbiology, 2023).

As a reminder, the Km is the substrate concentration at which the rate is half of its maximum. Usually Vmax stands for the rate approached at saturating substrate. The kcat is the maximal rate divided by the concentration of active sites. Usually kcat/Km stands for the turnover number divided by the Michaelis constant.

The test system of data set [1] is O=c1ccn([C@@H]2O[C@H](COP(=O)(O)OP(=O)(O)O)[C@@H](O)[C@H]2O)c(=O)[nH]1. The data set can be described thus: purified protein. The settings on record: 200 mM sucrose, 50 mM HEPES-NaOH pH 7.0, 37°C, sucrose cleavage direction, apparent. The format is biochemical, Micractinium conductrix.
Data set [2] relates to OC[C@H]1O[C@@](CO)(O[C@H]2O[C@H](CO)[C@@H](O)[C@H](O)[C@H]2O)[C@@H](O)[C@@H]1O. The data set can be described thus: purified protein. Type of data set: biochemical, Micractinium conductrix. As to conditions: 2 mM UDP, 50 mM HEPES-NaOH pH 7.0, 37°C, sucrose cleavage direction, apparent.

Sequence of McSuSy (Micractinium conductrix; S31D) (chain, as listed by the source S31D): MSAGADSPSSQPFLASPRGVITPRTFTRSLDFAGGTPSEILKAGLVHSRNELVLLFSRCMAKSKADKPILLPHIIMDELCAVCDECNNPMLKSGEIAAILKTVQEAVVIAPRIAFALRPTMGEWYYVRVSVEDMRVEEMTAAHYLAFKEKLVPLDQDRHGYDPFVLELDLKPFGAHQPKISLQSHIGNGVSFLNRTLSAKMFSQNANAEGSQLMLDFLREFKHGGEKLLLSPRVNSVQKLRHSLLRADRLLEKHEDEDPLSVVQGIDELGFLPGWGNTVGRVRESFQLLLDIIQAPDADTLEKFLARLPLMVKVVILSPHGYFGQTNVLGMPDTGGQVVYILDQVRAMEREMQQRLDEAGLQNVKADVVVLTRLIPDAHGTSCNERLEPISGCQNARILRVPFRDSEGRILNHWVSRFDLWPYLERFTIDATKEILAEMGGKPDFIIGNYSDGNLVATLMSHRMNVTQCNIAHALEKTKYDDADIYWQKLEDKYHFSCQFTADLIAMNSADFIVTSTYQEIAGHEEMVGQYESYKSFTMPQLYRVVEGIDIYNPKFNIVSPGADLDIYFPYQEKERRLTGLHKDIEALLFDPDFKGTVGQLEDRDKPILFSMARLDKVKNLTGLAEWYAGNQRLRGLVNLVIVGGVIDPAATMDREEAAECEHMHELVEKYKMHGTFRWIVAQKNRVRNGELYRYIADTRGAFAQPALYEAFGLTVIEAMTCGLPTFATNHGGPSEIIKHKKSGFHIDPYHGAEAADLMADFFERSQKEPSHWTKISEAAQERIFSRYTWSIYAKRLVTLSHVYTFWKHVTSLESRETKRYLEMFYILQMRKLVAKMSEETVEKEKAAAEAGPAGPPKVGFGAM
Sequence of McSuSy (Micractinium conductrix) (chain, as listed by the source): as the sequence (chain, as listed by the source S31D) above, with D31S counted along it

McSuSy (Micractinium conductrix; S31D): in data set [1], the Km is 0.092 mM, the Vmax was 11.4 µmol/min/mg, the turnover number (kcat) was 19 s⁻¹ and the kcat/Km amounted to 206000 M⁻¹ s⁻¹. For the same substance, the Michaelis-Menten constant (Km) in data set [2] stood at 88 mM.

For the substance McSuSy (Micractinium conductrix), in data set [1], the Km is given as 0.14 mM, the maximal velocity (Vmax) was found to be 10.4 µmol/min/mg, the catalytic constant (kcat) is 17.3 s⁻¹ and the specificity constant (kcat/Km) was determined as 124000 M⁻¹ s⁻¹. Besides, the Michaelis-Menten constant (Km) in data set [2] is 90 mM.
